Results: IntAct's records for PubMed 16461910

Assays:
dpo3b_bacsu dnaN = dpo3b_bacsu dnaN (UniProt P05649)
acub_bacsu acuB = acub_bacsu acuB (UniProt P39066)
dnaa_bacsu dnaA = dnaa_bacsu dnaA (UniProt P05648)
tlpa_bacsu tlpA = tlpa_bacsu tlpA (UniProt P39216)
tlpa_bacsu tlpA, sequence (P39216 whole entry): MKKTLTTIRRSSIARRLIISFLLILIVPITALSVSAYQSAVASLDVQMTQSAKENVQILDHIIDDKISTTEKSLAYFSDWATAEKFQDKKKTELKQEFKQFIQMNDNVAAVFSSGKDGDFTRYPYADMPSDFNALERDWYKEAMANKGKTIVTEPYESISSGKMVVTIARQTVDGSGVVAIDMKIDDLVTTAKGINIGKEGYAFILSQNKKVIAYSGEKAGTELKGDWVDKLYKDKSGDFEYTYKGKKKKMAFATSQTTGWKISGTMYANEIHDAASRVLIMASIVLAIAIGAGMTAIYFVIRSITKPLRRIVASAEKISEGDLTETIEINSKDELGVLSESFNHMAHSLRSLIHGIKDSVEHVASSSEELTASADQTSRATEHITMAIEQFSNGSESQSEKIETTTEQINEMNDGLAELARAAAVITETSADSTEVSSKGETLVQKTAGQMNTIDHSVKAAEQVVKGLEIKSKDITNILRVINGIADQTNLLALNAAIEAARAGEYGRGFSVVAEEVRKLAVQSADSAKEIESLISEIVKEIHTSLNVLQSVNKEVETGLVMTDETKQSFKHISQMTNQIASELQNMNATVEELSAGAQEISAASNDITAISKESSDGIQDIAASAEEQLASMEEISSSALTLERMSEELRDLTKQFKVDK

dnaa_bacsu dnaA, sequence (P05648 whole entry): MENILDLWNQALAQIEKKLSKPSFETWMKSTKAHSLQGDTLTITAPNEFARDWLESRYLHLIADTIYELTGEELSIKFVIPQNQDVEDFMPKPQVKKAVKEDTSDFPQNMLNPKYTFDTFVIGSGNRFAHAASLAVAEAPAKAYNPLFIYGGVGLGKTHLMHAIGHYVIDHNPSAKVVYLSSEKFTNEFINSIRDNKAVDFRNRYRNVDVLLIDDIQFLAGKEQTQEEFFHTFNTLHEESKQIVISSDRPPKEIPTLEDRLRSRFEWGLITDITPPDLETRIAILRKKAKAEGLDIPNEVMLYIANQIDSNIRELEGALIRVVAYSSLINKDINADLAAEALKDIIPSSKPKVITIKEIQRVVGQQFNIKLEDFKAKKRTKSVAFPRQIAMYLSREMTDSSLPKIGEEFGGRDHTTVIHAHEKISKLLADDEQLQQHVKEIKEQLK
dpo3b_bacsu dnaN, sequence (P05649 whole entry): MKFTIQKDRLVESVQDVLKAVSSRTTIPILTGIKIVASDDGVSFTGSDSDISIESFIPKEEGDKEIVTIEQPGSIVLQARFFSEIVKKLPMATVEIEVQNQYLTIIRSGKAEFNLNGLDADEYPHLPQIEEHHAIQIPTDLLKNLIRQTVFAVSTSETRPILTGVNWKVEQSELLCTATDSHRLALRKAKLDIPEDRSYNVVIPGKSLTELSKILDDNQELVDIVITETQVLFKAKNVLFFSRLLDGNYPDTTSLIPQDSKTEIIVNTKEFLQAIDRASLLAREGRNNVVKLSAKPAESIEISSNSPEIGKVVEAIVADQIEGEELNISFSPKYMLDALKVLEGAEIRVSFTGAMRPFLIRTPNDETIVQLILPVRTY
acub_bacsu acuB, sequence (P39066 whole entry): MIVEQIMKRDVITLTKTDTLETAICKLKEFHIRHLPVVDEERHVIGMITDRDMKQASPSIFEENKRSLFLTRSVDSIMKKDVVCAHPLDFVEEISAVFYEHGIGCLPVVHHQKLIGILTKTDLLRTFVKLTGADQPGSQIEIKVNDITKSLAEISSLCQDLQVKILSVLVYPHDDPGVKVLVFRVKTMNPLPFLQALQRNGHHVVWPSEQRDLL

Row | Substance | effect of a mutation on the interaction (dpo3b_bacsu dnaN) | effect of a mutation on the interaction (acub_bacsu acuB) | effect of a mutation on the interaction (dnaa_bacsu dnaA) | effect of a mutation on the interaction (tlpa_bacsu tlpA)
1 | Replication initiation control protein YabA (Bacillus subtilis), P37542 V99A | disrupting interaction strength |  |  | 
2 | Replication initiation control protein YabA (Bacillus subtilis), P37542 L27A | disrupting interaction strength | disrupting interaction strength | disrupting interaction strength | disrupting interaction strength
3 | Replication initiation control protein YabA (Bacillus subtilis), P37542 L86P |  |  | disrupting interaction strength | 
4 | Replication initiation control protein YabA (Bacillus subtilis), P37542 N85D |  |  | disrupting interaction strength | 
5 | Replication initiation control protein YabA (Bacillus subtilis), P37542 L110P | disrupting interaction strength |  |  | 
